# The Human Domainome abundance scans (Beltran et al. 2025)
# ± gives the uncertainty stated by the source.
# B1: FERM and PDZ domain-containing protein 4, residues 75 to 154; numbered along this chain, Q14CM0 (parent)
# chain: APRKVEMRRDPVLGFGFVAGSEKPVVVRSVTPGGPSEGKLIPGDQIVMINDEPVSAAPRERVIDLVRSCKESILLTVIQP
# Variants of: B1
# Test: abundance fitness (aPCA) (normalised: wild type 0, dead -1); higher = more abundant; growth selection in yeast, the domain comes from the species named
# Details: Homo sapiens
row,Variant,abundance fitness
1,G14N,-0.131 ± 0.044
2,G14V,-0.779 ± 0.039
3,G14W,-1 ± 0.071
4,G14I,-0.719 ± 0.062
5,E52K,-0.066 ± 0.031
6,E52M,-0.038 ± 0.028
7,E52C,-0.069 ± 0.03
8,E52H,-0.037 ± 0.038
9,G20Q,-0.03 ± 0.033
10,G20W,-0.105 ± 0.026
11,V27D,-0.802 ± 0.065
12,V27A,-0.591 ± 0.033
13,V27R,-0.958 ± 0.037
14,S29D,-0.034 ± 0.037
15,S29W,-0.22 ± 0.024
16,S29V,-0.136 ± 0.023
17,S29C,-0.136 ± 0.03
18,S29L,-0.152 ± 0.023
19,S29M,-0.083 ± 0.029
20,P53K,-0.003 ± 0.03
21,P53N,-0.005 ± 0.03
22,P53W,-0.094 ± 0.032
23,P53E,0.007 ± 0.036
24,P53D,0.034 ± 0.037

row,Variant,abundance fitness
1,G34M,-0.692 ± 0.051
2,G34D,-0.84 ± 0.061
3,G34Q,-0.802 ± 0.054
4,G34T,-0.066 ± 0.03
5,G34I,-0.957 ± 0.13
6,P11I,-0.162 ± 0.042
7,P11R,-0.123 ± 0.021
8,P11H,-0.208 ± 0.054
9,P11T,-0.111 ± 0.029
10,P11N,-0.157 ± 0.043
11,P11K,-0.09 ± 0.031
12,P11E,-0.117 ± 0.031
13,I63Q,-0.001 ± 0.042
14,I63A,0.005 ± 0.04
15,F15N,-0.848 ± 0.094
16,F15R,-0.911 ± 0.036
17,F15H,-0.828 ± 0.089
18,F15M,-0.392 ± 0.04
19,F15A,-0.729 ± 0.034
20,R28K,-0.002 ± 0.03
21,R28V,-0.089 ± 0.022
22,R28F,-0.134 ± 0.043
23,R28E,0.034 ± 0.025
24,R28Q,0.027 ± 0.031

row,Variant,abundance fitness
1,R28A,-0.032 ± 0.023
2,P80W,-0.403 ± 0.064
3,P80R,-0.146 ± 0.04
4,P80H,-0.165 ± 0.066
5,P80S,-0.066 ± 0.028
6,E60F,-0.183 ± 0.035
7,E60V,-0.131 ± 0.022
8,E60W,-0.112 ± 0.024
9,E60H,-0.038 ± 0.037
10,S68W,-0.21 ± 0.025
11,S68V,-0.17 ± 0.022
12,S68K,-0.043 ± 0.03
13,S68D,-0.042 ± 0.032
14,R9A,-0.066 ± 0.024
15,R9M,-0.149 ± 0.032
16,R9V,-0.217 ± 0.024
17,R9P,-0.086 ± 0.029
18,C69P,-0.378 ± 0.028
19,C69V,-0.091 ± 0.023
20,C69N,-0.056 ± 0.027
21,C69D,-0.323 ± 0.034
22,C69I,-0.19 ± 0.03
23,C69L,-0.236 ± 0.022
24,C69W,-0.591 ± 0.034

row,Variant,abundance fitness
1,C69A,0.004 ± 0.023
2,A19I,0.021 ± 0.048
3,A19P,-0.029 ± 0.029
4,A19H,-0.03 ± 0.046
5,P32K,-0.027 ± 0.029
6,P32F,-0.206 ± 0.033
7,P32T,-0.036 ± 0.026
8,P32R,-0.05 ± 0.024
9,P32I,-0.08 ± 0.031
10,M48T,-0.015 ± 0.025
11,M48F,-0.01 ± 0.027
12,M48G,-0.025 ± 0.026
13,M48D,-0.095 ± 0.039
14,M48A,0.044 ± 0.026
15,R8W,-0.043 ± 0.033
16,R8G,-0.052 ± 0.027
17,R8P,-0.116 ± 0.048
18,R8S,-0.024 ± 0.032
19,R8A,-0.009 ± 0.032
20,A57E,-0.022 ± 0.028
21,A57M,0.009 ± 0.028
22,A57I,-0.055 ± 0.035
23,A57Q,-0.028 ± 0.03
24,A57D,-0.052 ± 0.034

row,Variant,abundance fitness
1,E37I,-0.145 ± 0.046
2,E37Q,-0.034 ± 0.031
3,E37M,-0.122 ± 0.032
4,E37D,-0.028 ± 0.035
5,E37H,-0.09 ± 0.045
6,E22P,-0.979 ± 0.086
7,E22W,-0.305 ± 0.029
8,E22K,-0.199 ± 0.035
9,M7D,-1.08 ± 0.085
10,M7Y,-0.835 ± 0.075
11,M7E,-0.918 ± 0.051
12,M7W,-1.02 ± 0.047
13,M7T,-0.36 ± 0.03
14,Q45S,-0.102 ± 0.022
15,Q45I,-0.105 ± 0.027
16,Q45L,-0.136 ± 0.021
17,V25I,-0.116 ± 0.036
18,V25Y,-0.144 ± 0.047
19,V25A,-0.052 ± 0.026
20,V25K,-0.889 ± 0.068
21,V25H,-0.135 ± 0.043
22,V25Q,-0.373 ± 0.034
23,V25D,-0.535 ± 0.048
24,V77W,-0.981 ± 0.041

row,Variant,abundance fitness
1,V77S,-0.655 ± 0.03
2,V77Y,-0.815 ± 0.078
3,V77D,-0.658 ± 0.044
4,L65V,-0.105 ± 0.023
5,L65W,-0.244 ± 0.025
6,L65T,-0.114 ± 0.028
7,L65Q,-0.094 ± 0.03
8,L65Y,-0.076 ± 0.039
9,V62K,-1.03 ± 0.065
10,V62N,-0.738 ± 0.04
11,V62F,-0.17 ± 0.027
12,V62A,-0.32 ± 0.029
13,V62G,-0.936 ± 0.046
14,V62S,-0.666 ± 0.027
15,V62P,-0.841 ± 0.043
16,T76M,-0.154 ± 0.04
17,T76N,0.002 ± 0.074
18,V66I,-0.009 ± 0.035
19,V66S,-0.569 ± 0.028
20,V66D,-0.681 ± 0.048
21,V66K,-0.692 ± 0.043
22,V66A,-0.219 ± 0.024
23,V66H,-0.686 ± 0.056
24,P24A,-0.448 ± 0.029

row,Variant,abundance fitness
1,P24R,-0.572 ± 0.025
2,L75N,-0.773 ± 0.19
3,L75W,-0.629 ± 0.048
4,L75M,-0.022 ± 0.041
5,L75D,-0.343 ± 0.062
6,L75S,-0.558 ± 0.051
7,L75Q,-0.542 ± 0.096
8,L75E,-0.514 ± 0.054
9,L75A,-0.332 ± 0.04
10,I46M,-0.293 ± 0.16
11,D64C,-0.295 ± 0.031
12,D64W,-0.222 ± 0.033
13,D64S,-0.023 ± 0.023
14,D64P,-0.51 ± 0.034
15,D64Q,-0.013 ± 0.029
16,D64R,-0.049 ± 0.025
17,R59Q,0.022 ± 0.028
18,R59C,-0.03 ± 0.031
19,R59G,-0.007 ± 0.02
20,R59Y,0.025 ± 0.035
21,R59H,-0.059 ± 0.035
22,S55T,-0.157 ± 0.25
23,S55P,-0.027 ± 0.19
